T1: biotinylated hTRPV2 (hTRPV2 full-length expression vector with Myc-Biotinylation-His tag, expressed in HEK293 … (human, UniProt Q9Y5S1 1-764, biotinylated on the tag (Myc-Biotin-His tag)))
T1 construct: also called biotinylated hTRPV2-expressing HEK293 cells; not shown: Myc-Biotinylation-His tag
T1 sequence: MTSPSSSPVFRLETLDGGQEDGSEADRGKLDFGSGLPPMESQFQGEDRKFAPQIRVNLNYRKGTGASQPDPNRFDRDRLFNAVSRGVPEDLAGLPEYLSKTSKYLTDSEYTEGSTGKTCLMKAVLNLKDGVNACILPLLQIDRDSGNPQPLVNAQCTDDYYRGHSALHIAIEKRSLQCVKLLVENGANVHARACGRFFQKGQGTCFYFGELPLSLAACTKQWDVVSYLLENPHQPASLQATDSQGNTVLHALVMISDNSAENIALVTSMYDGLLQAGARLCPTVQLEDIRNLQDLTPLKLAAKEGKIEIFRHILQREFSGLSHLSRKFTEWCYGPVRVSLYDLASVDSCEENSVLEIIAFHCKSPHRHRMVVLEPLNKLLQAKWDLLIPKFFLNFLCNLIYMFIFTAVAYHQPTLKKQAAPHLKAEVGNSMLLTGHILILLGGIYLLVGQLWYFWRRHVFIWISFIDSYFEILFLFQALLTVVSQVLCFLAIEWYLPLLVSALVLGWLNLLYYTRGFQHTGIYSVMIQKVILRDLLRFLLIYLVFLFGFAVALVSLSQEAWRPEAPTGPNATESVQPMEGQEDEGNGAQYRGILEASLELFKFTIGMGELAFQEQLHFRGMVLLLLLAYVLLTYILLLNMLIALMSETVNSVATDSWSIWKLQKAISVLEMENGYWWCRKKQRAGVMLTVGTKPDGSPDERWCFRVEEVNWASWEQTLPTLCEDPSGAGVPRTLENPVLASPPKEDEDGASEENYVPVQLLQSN

T2: hTRPV2 extracellular domain-biotin (572-609) (human, biotin added with the lysine residue at the C-terminus)
T2 construct: Synthetic polypeptide, analyte in the SPR measurement; also called hTRPV2 extracellular domain (572-609)
T2 peptide: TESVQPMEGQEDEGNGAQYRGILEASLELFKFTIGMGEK

T3: mouse TRPV2 (mouse, UniProt Q9WTR1 1-756)
T3 construct: whole, on cells; In the Western blot solubilised from the cells; also called mTRPV2; mTRPV2-expressing HEK293 cells
T3 sequence (looked up): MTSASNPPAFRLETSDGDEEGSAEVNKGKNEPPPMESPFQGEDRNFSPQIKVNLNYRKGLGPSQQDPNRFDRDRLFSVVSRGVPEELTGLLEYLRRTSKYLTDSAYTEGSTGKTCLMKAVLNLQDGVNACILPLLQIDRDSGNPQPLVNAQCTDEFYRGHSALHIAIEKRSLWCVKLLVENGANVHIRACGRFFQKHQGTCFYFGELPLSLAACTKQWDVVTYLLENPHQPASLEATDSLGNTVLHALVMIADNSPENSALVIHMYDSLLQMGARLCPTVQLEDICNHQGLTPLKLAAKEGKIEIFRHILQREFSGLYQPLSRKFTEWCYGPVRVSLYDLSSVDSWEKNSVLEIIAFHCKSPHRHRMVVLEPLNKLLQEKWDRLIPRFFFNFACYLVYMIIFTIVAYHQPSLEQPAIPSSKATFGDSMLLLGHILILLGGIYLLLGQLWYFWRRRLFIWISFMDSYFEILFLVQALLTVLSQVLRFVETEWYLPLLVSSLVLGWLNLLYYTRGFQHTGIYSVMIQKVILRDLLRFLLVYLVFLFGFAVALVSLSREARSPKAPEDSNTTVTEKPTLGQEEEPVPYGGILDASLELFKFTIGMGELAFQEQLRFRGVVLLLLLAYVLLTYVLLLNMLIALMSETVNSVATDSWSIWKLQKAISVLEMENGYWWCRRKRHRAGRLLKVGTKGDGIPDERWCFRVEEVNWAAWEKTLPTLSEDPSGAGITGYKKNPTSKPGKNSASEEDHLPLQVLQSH

T4: human TRPV2 (transient receptor potential cation channel, subfamily V, member 2) (human, UniProt Q9Y5S1 1-764)
T4 sequence: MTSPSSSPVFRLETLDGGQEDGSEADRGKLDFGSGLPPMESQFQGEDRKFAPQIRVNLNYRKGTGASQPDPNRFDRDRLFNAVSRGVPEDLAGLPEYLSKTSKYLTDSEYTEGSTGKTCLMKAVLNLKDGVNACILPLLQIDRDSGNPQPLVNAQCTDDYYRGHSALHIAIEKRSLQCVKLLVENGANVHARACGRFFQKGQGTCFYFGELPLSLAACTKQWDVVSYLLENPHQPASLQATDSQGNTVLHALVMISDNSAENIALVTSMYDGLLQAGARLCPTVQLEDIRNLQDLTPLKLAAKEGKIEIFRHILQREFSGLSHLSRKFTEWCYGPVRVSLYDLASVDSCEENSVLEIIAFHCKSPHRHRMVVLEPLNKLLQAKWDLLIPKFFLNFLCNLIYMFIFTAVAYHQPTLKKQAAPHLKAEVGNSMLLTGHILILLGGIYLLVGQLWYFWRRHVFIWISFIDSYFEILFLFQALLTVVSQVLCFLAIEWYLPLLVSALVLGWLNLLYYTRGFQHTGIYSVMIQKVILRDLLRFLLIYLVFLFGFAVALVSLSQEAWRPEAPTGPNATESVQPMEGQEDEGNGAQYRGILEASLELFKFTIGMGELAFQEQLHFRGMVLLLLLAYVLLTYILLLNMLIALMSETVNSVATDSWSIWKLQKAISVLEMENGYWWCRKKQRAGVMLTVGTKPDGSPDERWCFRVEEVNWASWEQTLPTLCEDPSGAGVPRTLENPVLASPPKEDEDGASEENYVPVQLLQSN


What was measured:
[1] = biological target: T1, biotinylated hTRPV2 (hTRPV2 full-length …); assay: flow cytometry on hTRPV2-expressing 293 cells, purified IgG
[2] = biological target: T2, hTRPV2 extracellular domain-biotin …; assay: SPR (Biacore T200), antibody captured on anti-mouse IgG(Fc), peptide 10-1000 nM as analyte, 1:1 model
mouse TRPV2 = biological target: T3, mouse TRPV2; assay: Western blot of solubilised mTRPV2-expressing HEK293 cells
[3] = biological target: T4, human TRPV2 (transient receptor …); assay: cell-based or functional assay

Binder	binding result [1]	further results
humanized mAb002 antibody (VH14+VL1) (antibody, V domains shown, Full-length human IgG made in Expi293F cells) VH: QVQLQESGPGLVKPSQSLSLTCTVSGFSLTSFGIHWIRQPPGKGLEWIGVIWSGGITHYNSALMSRVSISKDTSKNQVFLKLSSVTAADTAMYYCAKLYSHPHAMDYWGQGTLVTVSS VL: DIVMTQSPLSLPVTPGEPASISCRSSKSLLHSNGITYLYWYLQKPGQSPQLLIYRMSNLASGVPDRFSGSGSGTDFTLKISRVEAEDVGVYYCMQHLEYPLTFGGGTKLEIK	binds	–
humanized mAb002 antibody (VH13+VL1) (antibody, V domains shown, Full-length human IgG made in Expi293F cells) VH: QVQLKQSGPGLVAPSQSLSITCTVSGFSLTSFGIHWIRQPPGKGLEWIGVIWSGGITHYNSALMSRLSISKDTSKNQVFLKLSSVTAADTAMYYCAKLYSHPHAMDYWGQGTLVTVSS VL: DIVMTQSPLSLPVTPGEPASISCRSSKSLLHSNGITYLYWYLQKPGQSPQLLIYRMSNLASGVPDRFSGSGSGTDFTLKISRVEAEDVGVYYCMQHLEYPLTFGGGTKLEIK	binds	–
humanized mAb002 antibody (VH16+VL1) (antibody, V domains shown, Full-length human IgG made in Expi293F cells) VH: QVQLQESGPGLVAPSQTLSLTCTVSGFSLTSFGIHWIRQPPGKGLEWIGVIWSGGITHYNSALMSRVSISKDTSKNQVFLKLSSVTAADTAMYYCAKLYSHPHAMDYWGQGTLVTVSS VL: DIVMTQSPLSLPVTPGEPASISCRSSKSLLHSNGITYLYWYLQKPGQSPQLLIYRMSNLASGVPDRFSGSGSGTDFTLKISRVEAEDVGVYYCMQHLEYPLTFGGGTKLEIK	binds	–
humanized mAb002 antibody (VH12+VL1) (antibody, V domains shown, Full-length human IgG made in Expi293F cells) VH: QVQLQESGPGLVKPSQSLSLTCTVSGFSLTSFGIHWIRQPPGKGLEWIGVIWSGGITHYNSALMSRVSISKDNSKNQVFLKMNSVTAADTAMYYCAKLYSHPHAMDYWGQGTLVTVSS VL: DIVMTQSPLSLPVTPGEPASISCRSSKSLLHSNGITYLYWYLQKPGQSPQLLIYRMSNLASGVPDRFSGSGSGTDFTLKISRVEAEDVGVYYCMQHLEYPLTFGGGTKLEIK	binds	–
humanized mAb002 antibody (VH15+VL1) (antibody, V domains shown, Full-length human IgG made in Expi293F cells) VH: QVQLQESGPGLVKPSQSLSLTCTVSGFSLTSFGIHWIRQPPGKGLEWIGVIWSGGITHYNSALMSRVSISKDTSKNQVSLKLSSVTAADTAMYYCAKLYSHPHAMDYWGQGTLVTVSS VL: DIVMTQSPLSLPVTPGEPASISCRSSKSLLHSNGITYLYWYLQKPGQSPQLLIYRMSNLASGVPDRFSGSGSGTDFTLKISRVEAEDVGVYYCMQHLEYPLTFGGGTKLEIK	binds	–
anti-human TRPV2 IgG antibody mAb002 (02a001) (antibody, V domains shown, Mouse IgG: VH joined to mouse CH1,2,3 and VL to CK, made in CHO-K1 cells, purified on Protein A; also called anti-hTRPV2 antibody (mAb002)) VH: QVQLKQSGPVLVAPSQSLSITCTVSGFSLTSFGIHWVRQPPGKGLEWLGVIWSGGITHYNSALMSRLSISKDNSKSQVFLKMNSLQTDDTAMYYCAKLYSHPHAMDYWGQGTSVTVSS VL: DIVMTQAAPSVPVTPGESVSISCRSSKSLLHSNGITYLYWFLQRPGQSPQLLIYRMSNLASGVPDRFSASGSGTAFTLRISRVEAEDVGVYYCMQHLEYPLTFGAGTKLELK	–	Kd [2]: 19.2 nM; binding result (mouse TRPV2): no binding (tested: 500-fold dilution); IC50 of the inhibition of Ca 2+ influx into hTRPV2-expressing HEK293 cells (Cal520 fluorescence, cannabidiol and probenecid stimulation) [3]: 8.9 nM
anti-human TRPV2 IgG antibody mAb001 (01a033) (antibody, V domains shown, Mouse IgG: VH joined to mouse CH1,2,3 and VL to CK, made in CHO-K1 cells, purified on Protein A; also called anti-hTRPV2 antibody (mAb001)) VH: QVQLKESGPDLVQPSQTLSLTCTVSGFSLTTYGVHWVRQPPGKGLEWVGTMGWDGKKYYNSALKSRLSISRDTSKNQVFLKLSSLQTEDTAMYYCTRDGGYTWFAYWGQGTLVTVSA VL: NIVMTQSPSSLAVSAGEKVTMSCKSSQSLLNSRTRKNYLAWYQQKPGQSPKLLIYWASTRESGVPDRFTGSGSGTDFTLTISSVQAEDLAVYYCKQSYNLFTFGGGTKLEIK	–	Kd [2]: 188 nM
